Source: patent US20240400670A1 (JIANGSU HENGRUI PHARMACEUTICALS, published 2024)

Experiments:
[1] = target: T1, human BAFF (Sino Biological, 10056-HNCH) (human, UniProt Q9Y275 134-285); assay: competition ELISA, blocks BAFF/BCMA; BCMA coated, biotin-BAFF
T1 construct: also called BAFF protein
Experimental: (§1) The specific procedures are as follows:
(§2) The receptor protein was diluted to 2 μg/mL with a PBS (BasalMedia, B320) buffer at pH 7.4 and added to a 96-well microplate (Corning, 3590) at 100 μL/well. The plate was incubated at 4° C. overnight. After the liquid was discarded, 1 % Casein blocking solution (Thermo, 37528) was added at 200 μL/well for blocking, and the plate was incubated at 37° C. for 2 h. After the blocking was complete, the blocking solution was discarded, and the plate was washed 3 times with a PBST buffer (pH 7.4 PBS containing 0.1 % tween-20) for later use. After the biotin-labeled ligand protein at a fixed concentration was mixed with an antibody or fusion protein diluted in a gradient, the mixture was pre-incubated at 37° C. for 30 min and then added to the blocked microplate. The plate was incubated at 37° C. for 1.5 h. After the incubation was complete, the plate was washed 3 times with PBST. Streptavidin-HRP (Invitrogen, 434323, diluted at 1:4000) was added at 100 μL/well, and the plate was incubated at 37° C. for 1 h. The supernatant was removed. […] The absorbance values at 450 nm were taken using a microplate reader. Curves for the inhibition of binding of the ligands to the receptors were fitted using software, and the IC₅₀ values were calculated.

[2] = target: T1, human BAFF (Sino Biological, 10056-HNCH); assay: competition ELISA, blocks BAFF/BAFF-R; BAFF-R coated, biotin-BAFF
Experimental: as §1, §2

[3] = target: T1, human BAFF (Sino Biological, 10056-HNCH); assay: competition ELISA, blocks BAFF/TACI; TACI coated, biotin-BAFF
Experimental: as §1, §2

[4] = target: T2, human APRIL (R&D Systems, 5860-AP-010/CF) (human, UniProt O75888 105-250, limits assumed); assay: competition ELISA, blocks APRIL/TACI; TACI coated, biotin-APRIL
T2 construct: the B cell assay names 'R&D Systems, 5860-AP'; also called APRIL protein
T2 sequence (looked up): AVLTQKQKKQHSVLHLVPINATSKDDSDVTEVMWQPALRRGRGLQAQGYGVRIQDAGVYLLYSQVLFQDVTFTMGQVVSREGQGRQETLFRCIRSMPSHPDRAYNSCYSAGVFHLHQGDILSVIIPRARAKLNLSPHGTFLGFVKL
Experimental: as §1, §2

[5] = target: T2, human APRIL (R&D Systems, …); assay: competition ELISA, blocks APRIL/BCMA; BCMA coated, biotin-APRIL
Experimental: as §1, §2

[6] = target: cynomolgus monkey BAFF (Kactus, BAF-CM412) (cynomolgus monkey, UniProt A0A2K5V2X4 134-285); assay: SPR (Biacore), Protein A capture of sample, 1:1 model
Experimental: (§3) A certain amount of test sample was subjected to affinity capture by a biosensor chip Protein A (GE, 29127556), and then antigens at a series of concentration gradients were allowed to flow on the surface of the chip. The reaction signals were detected in real time by using Biacore (GE, 8 K) to obtain association and dissociation curves. After the dissociation was completed for each cycle, the biochip was washed and regenerated with a 10 mM glycine-hydrochloric acid solution at pH 1.5 (GE, BR-1003-54). Fitting was performed based on the experimental data using BlAevaluation version 4.1 software with a 1:1 model, and affinity values were obtained.

[7] = target: mouse BAFF (Acro Biosystems, BAF-M521y) (mouse, UniProt Q9WU72 127-309, limits assumed); assay: as above
Experimental: as §3

[8] = target: T2, human APRIL (R&D Systems, …); assay: as above
Experimental: as §3

[9] = target: T1, human BAFF (Sino Biological, 10056-HNCH); assay: as above
Experimental: as §3

[10] = target: T3, human BAFF (ACROBiosystems, BAF-H52D4) (human, UniProt Q9Y275 134-285); assay: ELISA, sample coated, BAFF titrated, anti-His-HRP
T3 construct: detected with anti-His-HRP
Experimental: as §1
The test sample was diluted to 2 μg/mL with a PBS (BasalMedia, B320) buffer at pH 7.4 and added to a 96-well microplate (Coming, 3590) at 100 μL/well. The plate was incubated at 4° C. overnight. After the liquid was discarded, 5 % skim milk (BD, 232100) diluted with PBS was added at 300 μL/well for blocking, and the mixture was incubated at 37° C. for 2 h. After the blocking was completed, the blocking solution was discarded, and the plate was washed 3 times with a PBST buffer (pH 7.4, PBS containing 0.1 % tween-20). […] After the incubation, the plate was washed 3 times with PBST. […] After the plate was washed 3 times with PBST, a TMB chromogenic substrate (KPL, 5120-0077) was added at 100 μL/well, and the mixture was incubated at room temperature for 10⁻¹⁵ min, and then 1 M H₂SO₄ was added at 50 μL/well to terminate the reaction. The absorbance values at 450 nm were taken using a microplate reader. The binding curves of antibodies to antigens were fitted using software, and the EC₅₀ values were calculated.

[11] = target: BAFF (R&D Systems, 7537-BF); assay: cell-based or functional assay
[12] = target: T2, human APRIL (R&D Systems, …); assay: cell-based or functional assay

B1: RCT-18 (Fc fusion)
chain: SRVDQEERFPQGLWTGVAMRSCPEEQYWDPLLGTCMSCKTICNHQSQRTCAAFCRSLSCRKEQGKFYDHLLRDCISCASICGQHPKQCAYFCENKLRSPVNLPPELDKTHTCPPCPAPEAEGAPSVFLFPPKPKDTLMISRTPEVTCVVVDVSHEDPEVKFNWYVDGVEVHNAKTKPREEQYNSTYRVVSVLTVLHQDWLNGKEYKCKVSNKALPSSIEKTISKAKGQPREPQVYTLPPSRDELTKNQVSLTCLVKGFYPSDIAVEWESNGQPENNYKTTPPVLDSDGSFFLYSKLTVDKSRWQQGNVFSCSVMHEALHNHYTQKSLSLSPGK
notes: control TACI-Fc; also called telitacicept; RC18
IC50 [1]: 4.86 nM | IC50 [2]: 7.57 nM | IC50 [3]: 6.07 nM | IC50 [4]: 64.9 nM | IC50 [5]: 484 nM | Kd [6]: 0.258 nM | koff [6]: 9.54e-05 s⁻¹ | kon [6]: 370000 M⁻¹ s⁻¹ | Kd [7]: 0.121 nM | koff [7]: 8.98e-05 s⁻¹ | kon [7]: 740000 M⁻¹ s⁻¹ | Kd [8]: 0.0439 nM | koff [8]: 0.00753 s⁻¹ | kon [8]: 1.72e+08 M⁻¹ s⁻¹ | Kd [9]: 0.186 nM | koff [9]: 0.00018 s⁻¹ | kon [9]: 964000 M⁻¹ s⁻¹ | EC50 [10]: 21.5 nM | Activity in inhibiting proliferation of B cells (IC50, pM), BAFF [11]: 70.1 pM | Activity in inhibiting proliferation of B cells (IC50, pM), APRIL [12]: 1990 pM
